Measured values from patent US20260035447A1 (SCHOLAR ROCK, published 2026).

Biological target: T1, proGDF11 (Mus musculus, UniProt Q9Z1W4)
T1 construct: The text calls it recombinant mouse GDF11 / rGDF11, and the sheet labels it '10x proGDF11'; also called recombinant mouse GDF11; rGDF11 (murine)
T1 sequence (proprotein, looked up): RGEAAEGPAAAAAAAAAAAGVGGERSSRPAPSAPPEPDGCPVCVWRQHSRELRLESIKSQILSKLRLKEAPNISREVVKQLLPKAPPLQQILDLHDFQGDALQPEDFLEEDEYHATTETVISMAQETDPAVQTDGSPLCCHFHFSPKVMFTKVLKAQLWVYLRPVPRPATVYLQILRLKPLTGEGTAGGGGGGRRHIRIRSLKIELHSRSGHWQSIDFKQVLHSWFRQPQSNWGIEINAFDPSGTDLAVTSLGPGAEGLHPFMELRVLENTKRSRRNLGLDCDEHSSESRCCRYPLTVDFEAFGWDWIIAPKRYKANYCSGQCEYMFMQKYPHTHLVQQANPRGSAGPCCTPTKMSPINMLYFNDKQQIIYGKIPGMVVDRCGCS
Assay: recombinant protein absorption: Ab10 at 50 µg/mL pre-incubated overnight with 10-fold molar excess of recombinant mouse GDF11, then used as primary antibody for immunofluorescence on mouse tibialis anterior sections; read-out is retained tissue pro/latent GDF8 staining
Description: Tibialis anterior (TA) muscles were fixed in ice cold 4% paraformaldehyde (EMS), PBS for 30 min, incubated overnight in 10% sucrose, PBS at 4° C., then incubated overnight in 20% sucrose, PBS. Muscles were then mounted on cork with tragacanth (Sigma) and frozen in liquid nitrogen cooled isopentane (Sigma) for cryosectioning. 10 μm sections of TA muscle were permeabilized with 0.1% Triton-X 100 (Sigma), PBS for 20 minutes, washed once with 0.05% Triton-X 100, PBS (PBS/T), and then incubated in Mouse IgG blocking reagent (Vector Lab) diluted at 1 drop per 1.5 mL PBS/T for 1 h. Sections were washed once with PBS/T and then incubated in 10% Normal Goat Serum (Sigma), 1% Blocking powder (Perkin Elmer), PBS/T (NGB) for 30 minutes at room temperature. Primary antibodies (Rabbit anti-laminin, 1:5000, Abcam; Ab10, […]; HuNeg, 50 μg/mL,) were diluted in NGB and applied to sections overnight at 4° C. Sections were washed 3 times with PBS/T, and then incubated in secondary antibodies (Alexa Fluor 488 conjugated Goat anti-Rabbit, 1:1000, Invitrogen; Alexa Fluor 594 conjugated Goat anti-Human IgG FCY, 1:500, Jackson ImmunoResearch) diluted in NGB for 1 h. Sections were then incubated in 350 nM DAPI (Thermo), PBS/T for 5 minutes, washed twice with PBS/T, and then mounted with Vectashield (Vector Laboratories). […]

binding result: no binding
B1: anti-pro/latent GDF8 antibody, Ab10 (antibody, V domains shown)
VH: EVQLVQSGGGVVQSGRSLRLSCVASGFSFSNYGMHWVRQAPGKGLEWLAFIWYDGSNKWYADSVKGRFTISRDNSKNALYLQMNSLRAEDTAVYYCARDRYSSSWGGGFDYWGQGTVLTVSS
VL: NFMLTQPHSVSESPGRTVTIPCSGRGGSIASDSVQWYQQRPGSAPTTIIYEDNQRPSGVPDRFSGSVDSSSNSASLTISGLRTEDEADYYCQSYDASSLWVFGGKTKLTVLG
notes: The VL as printed runs into the start of the lambda constant region
